From patent US20080175847A1 (Genentech, published 2008)
Residue numbers refer to the chain shown, from its start.

B1: YW26 (antibody, V domains shown)
VH: EVQLVESGGGLVQPGGSLRLSCAASGFTFTDNWISWVRQAPGKGLEWVGVINPNSGSTDYADSVKGRFTISADTSKNTAYLQMNSLRAEDTAVYYCARDNFGGYFDYWGQGTLVTVSS
VL: DIQMTQSPSSLSASVGDRVTITCRASQDVSTAVAWYQQKPGKAPKLLIYSASFLYSGVPSRFSGSGSGTDFTLTISSLQPEDFATYYCQQSYTTPPTFGQGTKVEIK
notes: Only the six HVRs are tied to the clone; also called clone 152.26; anti-DLL4 antibody
B2: YW26.14 (antibody, V domains shown)
VH: B1 VH with T28S, T30R
VL: B1 VL with Y92V, T93N, T94G, P96A
notes: also called clone 152.26.14
B3: YW26.6 (antibody, V domains shown)
VH: B1 VH with V50L, N54Q, T58S
VL: B1 VL with T94G, P95Q, P96S
notes: Only the six HVRs are tied to the clone; also called clone 152.26.6
B4: YW26.34 (antibody, V domains shown)
VH: B1 VH with V50L, N54T, D59I
VL: B1 VL with T94G, P96S
notes: Only the six HVRs are tied to the clone; also called clone 152.26.34

What follows are binders tested against T1, C-terminal His-tagged human DLL4 (amino acid 1-404) (human, UniProt Q9NR61 26-404) (assay: SPR BIAcore-3000, antibody coupled to CM5 chip, DLL4-His injected, 25 C).
T1 construct: range 26-404; the text calls it human DLL4-His; also called DLL4-His; human DLL4-His; not shown: C-terminal His tag
Description: (§1) To determine the binding affinity of the anti-DLL4 Mabs, surface plasmon resonance (SRP) measurement with a BIAcore™-3000 was used (BIAcore, Inc., Piscataway, N.J.). Briefly, carboxymethylated dextran biosensor chips (CM5, BIAcore Inc.) were activated with N-ethyl-N′-(3-dimethylaminopropyl)-carbodiimide hydrochloride (EDC) and N-hydroxysuccinimide (NHS) according to the supplier's instructions. […] Next, IM ethanolamine was injected to block unreacted groups. […] Association rates (kon) and dissociation rates (koff) were calculated using a simple one-to-one Langmuir binding model (BIAcore Evaluation Software version 3.2). The equilibrium dissociation constant (Kd) was calculated as the ratio koff/kon.

T1 sequence (Q9NR61 26-404 limits assumed): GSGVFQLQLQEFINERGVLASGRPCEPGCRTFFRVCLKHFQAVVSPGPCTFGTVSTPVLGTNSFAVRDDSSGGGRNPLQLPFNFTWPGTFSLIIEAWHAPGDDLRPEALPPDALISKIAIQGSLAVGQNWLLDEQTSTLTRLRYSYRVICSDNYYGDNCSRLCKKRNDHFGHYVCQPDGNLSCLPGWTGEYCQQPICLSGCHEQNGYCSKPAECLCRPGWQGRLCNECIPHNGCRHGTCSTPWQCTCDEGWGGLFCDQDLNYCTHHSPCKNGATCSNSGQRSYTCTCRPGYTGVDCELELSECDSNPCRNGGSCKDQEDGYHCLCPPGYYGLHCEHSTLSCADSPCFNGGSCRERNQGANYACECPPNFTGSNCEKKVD

**Q.** For B1, which Kd is on record?
**A.** 25 nM

**Q.** What about the koff of the same binder?
**A.** 0.00074 s⁻¹

**Q.** What about the kon of the same binder?
**A.** 30000 M⁻¹ s⁻¹

**Q.** Which Kd does the source give for B2 here?
**A.** 0.37 nM

**Q.** What about the koff of the same binder?
**A.** 6.6e-05 s⁻¹

**Q.** What about the kon of the same binder?
**A.** 180000 M⁻¹ s⁻¹

**Q.** Which Kd does the source give for B3 here?
**A.** 0.25 nM

**Q.** What does the source list for B4?
**A.** Kd: 0.35 nM; koff: 6.7e-05 s⁻¹; kon: 190000 M⁻¹ s⁻¹

The binders below were run against T2, His-tagged murine DLL4 (murine, UniProt Q9JI71 27-405, limits assumed) in the same assay as above.
T2 construct: domain: ECD5.5; also called murine DLL4-His; murine Delta4 (ECD5.5); not shown: His tag
Description: as §1

T2 sequence (Q9JI71 27-405 limits assumed): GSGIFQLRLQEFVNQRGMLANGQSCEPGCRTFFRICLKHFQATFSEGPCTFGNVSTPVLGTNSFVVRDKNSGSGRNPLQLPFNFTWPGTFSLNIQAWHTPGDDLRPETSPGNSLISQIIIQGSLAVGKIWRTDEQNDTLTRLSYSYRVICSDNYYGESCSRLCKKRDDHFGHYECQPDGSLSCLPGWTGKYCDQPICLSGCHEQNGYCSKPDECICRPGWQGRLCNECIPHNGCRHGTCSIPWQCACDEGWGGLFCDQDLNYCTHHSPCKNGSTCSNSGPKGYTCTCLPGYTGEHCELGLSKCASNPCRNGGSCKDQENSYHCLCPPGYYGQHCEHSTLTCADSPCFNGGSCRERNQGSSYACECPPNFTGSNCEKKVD

**Q.** With B1 as the binder, how does the Kd read?
**A.** 28 nM

**Q.** And the koff?
**A.** 0.0016 s⁻¹

**Q.** And the kon?
**A.** 57000 M⁻¹ s⁻¹

**Q.** With B2 as the binder, how does the Kd read?
**A.** 0.22 nM

**Q.** What about the koff of the same binder?
**A.** 7.3e-05 s⁻¹

**Q.** And the kon?
**A.** 330000 M⁻¹ s⁻¹

**Q.** How did the Kd turn out when B4 was run?
**A.** 0.18 nM

**Q.** What about the koff of the same binder?
**A.** 6.5e-05 s⁻¹

**Q.** What about the kon of the same binder?
**A.** 360000 M⁻¹ s⁻¹
